First the molecules themselves.
B1: HDV Ribozyme (parent)
chain: GGCCGGCAUGGUCCCAGCCUCCUCGCUGGCGCCGGCUGGGCAACAUUCCGAGGGGACCGUCCCCUCGGUAAUGGCGAAUGGGACCCA

This data set covers variants of B1. Briefly: self-cleavage, relative activity (ratio to wild type); higher = more cleavage; co-transcriptional.
GGCCGGCAUGGUCCCAGCCUCCUCGCUGCCGCCGGCUGGGCAGCAUUCCGAGGGGACCGUCCCCUCGGUAAUGGCGAAUGGGACCCA: the self-cleavage is 0.0692.
With GGCCGGCAUGGUCCCAGCCUCCUCGCUGGCGCCGGCUGGACAACAUUCCGAGGGGACCGUGCCCUCGGUAAUGGCGAAUGGGACCCA, the self-cleavage amounted to 1.17.
Under GGCCGGCAUGGUCCCAGCCUCCUCGCUGGCGCCGGCUGGGCAACAUUCCGAGGGGAGCGUCCCCUCGGUAAUGGCGAAUCGGACCCA stands 0.125.
The result for GGACGGCAUGGUCCCAGCCUCCUCGCUGGCGCCGGCUGGGCAACAUUCCGAGGGGACCGUCCCCUCGGUAAUGCCGAAUGGGACCCA reads 0.0369.
The result for GGCCGGCAUGGUCCCAGCCUCCUCGCUGGCGCCGGCUGGGCAACAUUCCGAAGGGACCGUCCCCUCGGUAAUGGCGUAUGGGACCCA reads 0.694; that for GGCCGGCAUGGUCCCAGCCUCCUCGCUGGCGCCGACUGGGCAACAUUCCGAGGGGAACGUCCCCUCGGUAAUGGCGAAUGGGACCCA, 0.545; that for GGCCGGCAUGGUCCCAGCCUCCUCGCUGGCGCCGGCUGGGCAACAUUCCGAGGGGACCGUCCCCUCGGUAAGGGCGACUGGGACCCA, 0.0831.
As for GGCCGGCAUGGUCCCAGCCUCCGCGCUGGCGCCGGCUGGGCAACAUUCCGAGGGGACCGUCCCCUCGGUAAUGGCGAAUAGGACCCA, the self-cleavage turned out to be 0.134.
Under GGCCAGCAUAGUCCCAGCCUCCUCGCUGGCGCCGGCUGGGCAACAUUCCGAGGGGACCGUCCCCUCGGUAAUGGCGAAUGGGACCCA stands 0.203; under GGCCGGCAUGGUCCCAGCCUCCUCGCUGGCGCCGGCUGGGCAACAUUCCGAGGGGCCUGUCCCCUCGGUAAUGGCGAAUGGGACCCA, 1.07; under GGCCGGCAUGGUCCGAGCCUCCUCGCUGGCGCCGGCUGGGCAACAUUCCGAGGGGACCGUCCCCUCGCUAAUGGCGAAUGGGACCCA, 0.511.
Under GGCCGGCAUGGUCCCAGCCUCCUCGCUGGCGACGGCUGGGCAACAUCCCGAGGGGACCGUCCCCUCGGUAAUGGCGAAUGGGACCCA stands 0.0462.
The result for GGCCGGCAUGGUCCCAGCCUCCUCGGUGGCGCCGGCUGGGCAACUUUCCGAGGGGACCGUCCCCUCGGUAAUGGCGAAUGGGACCCA reads 0.895.
Consider GGCCGGCAUGGUCCCAGCCUCCUCGCUGGCGCCGGCUGGGCAACAUUCCGAGGGGACCGUCCCCGCGGUAAUGGAGAAUGGGACCCA, for which the self-cleavage came out at 0.259.
The result for GGCCGGCAUGGUCCCAGCCUCCUCGCUGGCGCCGGCUGGGCAACAUUACGAGGGGACCGUCCCCUCGCUAAUGGCGAAUGGGACCCA reads 0.707; that for GGCCGGCAUGGUCCCCGCCUCCUCGCUGGCGCCGGCUGGGCAACAUUCCGAGGGGACCGUCCGCUCGGUAAUGGCGAAUGGGACCCA, 0.633; that for GGCCGGCAUGGUCCCAGCCGCCUCGCUGGCGCCGGCUGGGCAACAUUCCGCGGGGACCGUCCCCUCGGUAAUGGCGAAUGGGACCCA, 0.332.
The result for UGCCGGCAUGGUUCCAGCCUCCUCGCUGGCGCCGGCUGGGCAACAUUCCGAGGGGACCGUCCCCUCGGUAAUGGCGAAUGGGACCCA reads 0.326.
With GGCCGGCAUGGUCCCAGCCUCCCCGCUGGCGCCGGCUGGGCAACAUUCCGAGGGGACCGUCCCCUCGGUAAUGGCGAAUAGGACCCA, the self-cleavage was 0.394.
GGCCGGCAUGGUCCCAGCCUCCUCGCUGGCGCCGGCUGGGCAACAUUGCGAGGGGACCGUCCCCUCGGUAAUGGCGAAUGGGAUCCA: the self-cleavage turned out to be 0.848.
On to GGCCGGCAUGGUCCCAGCCUCCUCGCUGGCGCCGGCUGGGCAACAUUCCGAGGGGACCGUCCCCUCGAUAAUGGCGAAAGGGACCCA, for which the self-cleavage came out at 0.554.
For GGCCGGCAUGGUCCCAGCCUCCUCGCUGGCGCCGGCUGGGCGACAUUCCGAGGGGACCGUCCCCUGGGUAAUGGCGAAUGGGACCCA, the self-cleavage is 0.538.
With GGCCGGCCUGGUCCCAGCCUCCUCGCUGGCGCCGGCUGGGCAACAUUCCGAGGGGACCGUCCCCUCGGUAAUGGCGAAUGGGUCCCA, the self-cleavage came out at 0.237.
Under GGCCGGCAUGGUCCCAGCCUCCUCGCUGGCGCCGGCUGGGCAACAUUCCGAGGGAACCGUCCCCUCGGUAAUGGCGAAUGGGGCCCA stands 0.919; under GGCCGGCAUGGUCCCAGCCUCCUCGCUGGCGCCGGCUGGGCAACAUUCCGAGGGGACCGUCUCCUCGGUAAUGACGAAUGGGACCCA, 0.383; under GGCCGGCAUGGUCCCAGCCUCCUGGCUGGCGCCGGCUGGGCAACAUUCCGAGGGGACCGUCCCCUCGGUAAUGGCGAAUUGGACCCA, 0.0746.
As for GGCCGGCAUGGUCCCUGCCUCCUCGCUGGCGCCGGCUGGGCAACAUUCCGAGGGAACCGUCCCCUCGGUAAUGGCGAAUGGGACCCA, the self-cleavage was 0.784.
Under GGCCGGCAUGGUCCCAGCCUCCUCGCUGGCGCCGGCGGGGCAACAUUCCGAGGGGACCGUCCCCUCGGUAAUGGCAAAUGGGACCCA stands 0.185.
GGCCGGCAUGGUCCCAGCCUCCUCGCUGGCGCCGGCUGGGCAACAUUCCGAGGGGACCGUCCCCGCCGUAAUGGCGAAUGGGACCCA: the self-cleavage amounted to 0.156.
The result for GGUCGGCAUGGUCUCAGCCUCCUCGCUGGCGCCGGCUGGGCAACAUUCCGAGGGGACCGUCCCCUCGGUAAUGGCGAAUGGGACCCA reads 0.758; that for AGCCGGCAUGGUCCCAGCCUCCUCGCUGGCGCCGGCUGGGCAACAUUCCGAGUGGACCGUCCCCUCGGUAAUGGCGAAUGGGACCCA, 0.0386; that for GGCCGGCAUGGUCCCAGCCUCCUCGCUGGCGCCGGCUGGGCAACAUUCCGCGGGGACCGUCCCCUGGGUAAUGGCGAAUGGGACCCA, 0.864.

The values are drawn from the RNAGym collection of RNA variant scans (doi:10.7554/elife.80360).
